Experimental data published in publication PMC9371709 (Proceedings of the National Academy of Sciences of the …, 2022).
Where “and” joins values, the source holds several entries; their conditions need not be identical. Identical values can stand only once.

Assays:
[1] = target: the molecule itself; assay: SEC-MALS
[2] = target: the molecule itself; assay: cryo-EM structure

B1: human Twinkle helicase W315L (C-terminal his-tag Δ42, FL residues 43–684) (enzyme, UniProt Q96RR1 43-684, looked up)
chain: ETLQALDMPVLPVTATEIRQYLRGHGIPFQDGHSCLRALSPFAESSQLKGQTGVTTSFSLFIDKTTGHFLCMTSLAEGSWEDFQASVEGRGDGAREGFLLSKAPEFEDSEEVRRIWNRAIPLWELPDQEEVQLADTMFGLTKVTDDTLKRFSVRYLRPARSLVFPWFSPGGSGLRGLKLLEAKCQGDGVSYEETTIPRPSAYHNLFGLPLISRRDAEVVLTSRELDSLALNQSTGLPTLTLPRGTTCLPPALLPYLEQFRRIVFWLGDDLRSLEAAKLFARKLNPKRCFLVRPGDQQPRPLEALNGGFNLSRILRTALPAWHKSIVSFRQLREEVLGELSNVEQAAGLRWSRFPDLNRILKGHRKGELTVFTGPTGSGKTTFISEYALDLCSQGVNTLWGSFEISNVRLARVMLTQFAEGRLEDQLDKYDHWADRFEDLPLYFMTFHGQQSIRTVIDTMQHAVYVYDICHVIIDNLQFMMGHEQLSTDRIAAQDYIIGVFRKFATDNNCHVTLVIHPRKEDDDKELQTASIFGSAKASQEADNVLILQDRKLVTGPGKRYLQVSKNRFDGDVGVFPLEFNKNSLTFSIPPKNKARLKKIKDDTGPVAKKPSSGKKGATTQNSEICSGQAPTPDQPDTSKRSK
- stoichiometry N [1]: ~8
- stoichiometry N [2]: 7 and 8
